Data as given in the supplement of paper PMC9942255.
“And” between values parts separate entries of the source, which are not always exact repeats. Equal values may be shown once.

Test system: Bacillus subtilis DB104 (SP-AmyQ fusion secretion)
Test: AmyQ secretion efficiency, weighted average sort bin (1 = best secretion, 10 = worst) (bin number (weighted average, 1-10)); higher = lower secretion efficiency
Method in brief: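 The secretion score was taken as the read-frequency-weighted mean bin number, normalised to beads per bin, with low-abundance sequences excluded. Bins came from large-particle flow cytometry sorting of occupied alginate beads (~65 nL, about 0.3 cells each, with fluorescein-starch) into 10 equally populated groups by green/red fluorescence ratio after about 13 h at room temperature and nile red staining. The cells were a B. subtilis DB104 library with mature AmyQ fused to designed signal peptides, integrated at amyE, and each bin's amplicons were Illumina-sequenced.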

| Sequence | AmyQ secretion efficiency |
| --- | --- |
| MKKLVLCVSILAVILSGVALTQLS | 5.95 and 6.59 and 6.66 |
| MKKIGLLFMLCLAALFTIGFPAQQADAEED | 2.27 |
| MTSLMMLSMLTVMIASLFIFSSQALAVQY | 3.98 |
| MMLMMSVSMFLVALTMCGGLFVTPAKAVKT | 4.77 |
| MKKRITYSFTMMLLALLAVVAFAFTDSSKAKAAEA | 1.93 |
| MKLWMRKTLVVLFTIVTFGLVSPPAALMIDKP | 2.83 |
| MTKKAWFLPLVCVLLISGWLAPAASASAQED | 2.97 |
| MMKKLFHSTLIVLLFFSFFGVKRKIHAKKQ | 3.3 |
| MKVLLSALLLLLFAFEPSASWKKL | 5.1 |
| MKKTIMSFVAVAALSTTAFGAHFSAKEI | 4.73 |
| MFTNHTISLLIIFLLASAVLAKPIEAHTV | 2.28 |
| MKKRLIAPMLLSAASLAFMSGSAQAAAY | 3.31 |
| MNFKKTVVSALSISALALEEEGVASAHEI | 7.3 |
| MSGSSFVLIVCIIFTSALFPTFSSVTAAQG | 1.04 |
| MKKAKRVFLSVVLVTTVFLVKQQESVAQAKQL | 3.28 |
| MKRIRIPMTLALGAALTIAPLSFASGEEN | 3.92 |
| MRKYTTKGYQKTYFLSVLSGGHHESKAFPV | 8.3 |
| MKNMSCKLVVSVTLFFSFLTIGPLMHAQNS | 1.39 |
| MGLGKKLSVAVAASFMSLSISLPGVQAEDD | 4.28 |
| MRKKLKWLSFLLGFIILLFLFKKKFSNNDS | 7.77 |
| MKRTSTAYLLLGILCSAAVFLIGAPSRALGAEV | 2.85 |
| MKLWMRKTLVVLFTIVTFGLKKRPAALMADKP | 6.91 |
| MKRRLSTLLIGIMLLTFAPSAFAKQD | 1.82 |
| MLKKIALTLCPAIVGSLLFFTAPLSAHVS | 3.94 |
| MILANSVSALTPSTTLAITAKAKEL | 8.58 |
| MKKKQVMLALTAAAGLGLTALHSAPAAKAADD | 3.53 |

| Sequence | AmyQ secretion efficiency |
| --- | --- |
| MKKKLAAGLTASAIVGTTLVVFTAEAATI | 5.8 |
| MTKLKMLSMLTVMIASLFIFSSQGLAVQY | 2.52 |
| MKIVLLSALLLLLFAFEPSASGKKL | 4.93 |
| MRKTIFAFLTGLMMFGTITAISASPD | 5.52 |
| MKQGKFSVFLILLLMLTLVVAPKEKCEAASS | 1.62 |
| MKQIMIFLTSFMLLAMTGTTALAKDV | 3.67 |
| MKRLLVSLRVWMVFLMNWVTPDRKTAAGAVY | 7.15 |
| MNLRKILLSSALSLGMLVSAAPVLWTSS | 6.71 |
| MKRSIRTGTYCLLITLLTMGGMIASPASAAGT | 3.22 |
| MKKKQVMLALTAAAGLGLTALHSAPADKAAPL | 5.48 |
| MMLAKRVSALTPSTTLAITAKAKEL | 7.47 |
| MLKKKWMVGLLAGCLAAGGFSYNGSFVAFATEN | 3.96 |
| MPYLKRVLLLLVTGLFMSLFAVTATMSAQTG | 1.29 |
| MKRKQYSGRKLSIIVAYPIQTNASPM | 6.49 |
| MKKQIITATTAVVLGSTLFAGAAAVASAQSI | 3.9 |
| MKQKRGRKACLILFSFTITTFINTETISAFSN | 3.84 |
| MAIIIAIIAAVIVIAALITFNVGGSPVVSTSTARNASPG | 3.35 |
| MGLGKKLSVAVAASFMSLSISLRKKVQAAEG | 8.03 |
| MPYLKRKGYQYQSGLFMSLFAVTATASAQTG | 4.4 |
| MMSRKILLSSALSLGMLVSAAPVLATSS | 3.37 |
| MRKKTKNRLISSVLSTVVISSLLFPGAAGASSK | 1.59 and 2.27 and 1.9 |
| MKRLLSTLLIGIMLLTFAPSMFAKQD | 2.35 |
| MLKRTSFVSSLFISSAVLLSILLPSGQIHAQSA | 2.68 |
| MKRITINIITMFIAAAVISLTGTAEAASS | 2.16 |
| MTGYYKVLTMCFLGLILFVPTALADNS | 1.69 |
| MKRTWNVCLTALLSVLLVAGSVDDHAEAKKP | 1.97 |

| Sequence | AmyQ secretion efficiency |
| --- | --- |
| MRKNRILALFVLSLGLLKRKRKKVSAASK | 6.69 |
| MNKKYFVLIVCIIFTSALFPTFSSVTCAQG | 1.06 |
| MRPVFPLILIAVLFLFCFSFGARQTEASASKR | 2.07 |
| MFKIMSAFVGMVLLTIFCFSPQASAAYD | 3.33 |
| MGKWYYVVLVLSIAGIGGFSVHAASS | 7.3 |
| MKRITINIITMFIAAAVIKRRRRKKAEAAEK | 6.55 |
| MKLKSKLLLSCLALSTVFVATTIANNPTH | 5.17 |
| MKSCKQKQVCSLAAILLLIPSVSFAADS | 6.15 |
| MKKLVLCVSILAVILSGVALYQLS | 4.11 |
| MKLKSKLLLSCLALSTVFVLFSTATTIANAPTH | 4.84 |
| MKKVLMAFIICLSLILSVLAAPPSGQKAESV | 7.08 |
| MKLAKRVSALTPSTTLAIATAKAKEL | 7.06 |
| MKKLLAAGIIGLLTVSIASPSFQAEK | 7.82 |
| MLKKKWMVGLLAGCLAAGGFSYNVFATEN | 5.37 |
| MKLKSKLFVICLAAAAIFTAAGVSANAEALDF | 7.41 and 6.26 |
| MKKWMAGLFLAAAVLLCLMVPQQKQGASS | 3.94 |
| MARKRKIIAAVIVIAALITFNVRNASPG | 6.43 |
| MKLAKRVSALTPSTTLAITTKAKEL | 6.55 |
| MFKKHTISLLIIFLLASAVLAKPIEYHTV | 5.13 |
| MKQFAITLSVLCALILLVPTLLVIPFQHNKMAGASV | 5.07 |
| MKVCQKSIVRTNFLVSLIIGTFVISVPFMANAQSD | 2.34 |
| MKRSISIFITCLLITLLKRKGMIASPASAAGT | 5.06 |
| MKKTIMSFVAVAALSTTAFVAFTTSTLSGAHASAKEI | 4.48 |
| MKKWMITIAMLILAGIALFVFIFSPLKSHKT | 7.63 |
| MRGKSSTRKSLIMLIAGFLISFSFQM | 7.08 |
| MKKRKRRNFKRFIAAFLVLALMIDVLAKST | 7.65 |

| Sequence | AmyQ secretion efficiency |
| --- | --- |
| MRKKLKWLSFLLGFIILLFLFKYQFSPNDS | 6.63 |
| MRYFSKAVFVIMISFLIATVNVNTAHAAID | 5.65 |
| MKKQIITATTAVVLGSTLFAGACSAQSI | 2.49 |
| MNLRKILLSSALSLGMLVSAAPWLATSS | 6.1 |
| MAIIIAIIAAVIVIAALITFAVRNASPG | 6.55 |
| MPYLKRVLLLLVTGLFMSLFAVTATWSAQTG | 6.1 |
| MKKRLIAPMLLSAASLAFFAMSGSAQAAEE | 2.23 |
| MKIRKILLSSALSFGMLISAVPGLAAGT | 3.97 |
| MPYLKRVLLLLVTGLFMSLFAVTATASPQTG | 1.86 |
| MLKRTSFVSSSFISSAVLLSILLPSGQAHAQSA | 2.16 |
| MRKKKLWISLLFALTLIFTMAFSNMSAQAAGK | 2.97 |
| MGLGKKLSVAVAASFPGVQAAEG | 7.32 |
| MFNRLFRVCFLAALIMAFTLPNSPYAQKP | 7.43 |
| MLKKIALTLCPAIVGSLLFFTAPFSAHVS | 5.46 |
| MKKWLIIAVSLAIAIVLFMYTKGEKKAAGM | 5.84 |
| MKKWMITIAMSYTSTKRYFVFISPLKSHKT | 7.55 |
| MFKKHTISLLIIFLLASAVLAKPCEAHTV | 2.62 |
| MRNLTKTSLLLAGLCTAAQMVFVTHHSAEES | 4.26 |
| MKRIRIPMTLALGAALTIAPLSFASAEED | 3.29 |
| MKKQRKIITATTAVVLGSTLFAGAASAQSI | 1.81 |
| MKRTWNVCKRALLSVLLVAGSVPFHAEAKKP | 3.1 |
| MTKKAWFLTLVCVLLISGWLAPAASASAQTT | 1.56 |
| MYKGWLIQFAVMLSVLSTFTYSASAVGV | 5.73 |
| MMKKLFHSTLIVLLFFSFFGVQPEIHAKKQ | 2.24 |
| MKKQIITATTAVVLGSTGAASAQSI | 4.95 |
| MKQFAITLSVLCALILLVPTLLVIPFQHNKEAPASV | 8.36 |

| Sequence | AmyQ secretion efficiency |
| --- | --- |
| MKKRLIAPMLLSAASLAFFAMSGSAQCAAY | 6 |
| MTKLKMLSMLTVMIASLFIFSSQALGVQY | 3.68 |
| MKKRLIAPMLLSAASLAFFAMSGSCQAAAY | 2.58 |
| MKRKLRRKRRKSALSLGLLVSAPTASFAAES | 7.05 |
| MNFKKTVVSALSISASVSGVASAHEI | 5.11 |
| MKSKWMSGLLLVAVGFSFTQVMVHNGET | 8.98 |
| MYKKFVPFAVFLFLFFVSFEMMENPHALDY | 7.08 |
| MKKLLAAGIIGLLTVSIASPNFAAEK | 5.52 |
| MKRIRIPMTLALGAALTIAPLSFNSAEEN | 7.4 |
| MFNRLFRVCFLAALIMAFTLPNSVYFQKP | 7.24 |
| MGLGKKLSVAVAASFMSLSISLDEEDDEVQAAEG | 1.62 |
| MKKAAAVLLSLGLVFDKGYEPGHVAEAKTK | 2.85 |
| MKKWMITIAMLILAGIALFVFIRKLKSHKT | 7.72 |
| MKRIRIPMTLALGAALTIAPLSFASAASN | 1.02 |
| MLKKIGYQGCPRSYGSLLFFTAPASAHVS | 7.75 |
| MAIIIAIIAAVIVIAALITFNVLNASPG | 6.68 |
| MKKRLIAPMSGYGASLAFFAMSGSAQAAAY | 7.43 |
| MIVSRQTRQRIIVFLSVIQPQPS | 6.7 |
| MMIKQCVICLSLLVFGTEDEEEEAHAEET | 6.81 |
| MRKVITCVMAASLTLGSLLPAGYASAKED | 3.26 |
| MGFVSSSIIALVTILMLSVTSLFALQPSAKAAEH | 2.48 |
| MKKWMITIAMLILAGIALFVFISPFKSHKT | 6.23 |
| MKLAKRVSALTPSTTLAIEAKAKEL | 7.23 |
